Results reported in patent publication US20200095339A1 (IMMUNEONCO BIOPHARMACEUTICALS SHANGHAI, published 2020).

T1: human CD20 (human, UniProt P11836 1-297)
T1 sequence (looked up): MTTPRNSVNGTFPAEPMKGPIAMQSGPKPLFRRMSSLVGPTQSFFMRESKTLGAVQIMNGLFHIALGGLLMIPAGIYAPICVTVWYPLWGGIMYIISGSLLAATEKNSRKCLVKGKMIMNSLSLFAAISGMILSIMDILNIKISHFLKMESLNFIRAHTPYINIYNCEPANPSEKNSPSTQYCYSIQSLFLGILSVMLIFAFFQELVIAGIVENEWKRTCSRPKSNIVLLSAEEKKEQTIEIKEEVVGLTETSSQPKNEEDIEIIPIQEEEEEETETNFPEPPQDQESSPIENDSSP


How the values were obtained:
[1] = molecular target: T1, human CD20; assay: cell-based or functional assay
[2] = molecular target: T2, human CD47 (human, UniProt Q08722 19-323); assay: FACS competition on Jurkat cells; competitor 25 nM biotin-SIRPα-Fc, detected with FITC-streptavidin
T2 construct: whole, on cells; Endogenous CD47 on tumor cell lines
Procedure: (§1) The mixture was cultured at RT for 30 minutes, and then incubated with Jurkat cells at RT for 1 hour. After washes, the cells was added with fluorescence labeled streptavidin (FITC-Strep) and then incubated at RT for 1 hour.

[3] = molecular target: T2, human CD47; assay: flow cytometry on Jurkat cells (CD20-CD47+)
[4] = molecular target: T1, human CD20; assay: flow cytometry on Raji-CD47KO cells (CD20+CD47-)
[5] = molecular target: T2, human CD47; assay: cell-based or functional assay
[6] = molecular target: T2, human CD47; assay: FACS competition on Jurkat cells against 25 nM labelled SIRPα-Fc. Number printed in the IC50 table although the Rituximab curve shows no inhibition (see non_binding). The table prints no unit, nM is taken from the concentration axis
Procedure: as §1

Binder	ADCC EC50, Raji target cells, NK92MI-CD16a effector cells [1] [ng/mL]	ADCC EC50, Raji-CD47KO target cells, NK92MI-CD16a effector cells [1] [ng/mL]	CDC EC50, Raji target cells, rabbit complement [1] [nM]	EC50 [2] [nM]	EC50 [3] [nM]	EC50 [4] [nM]	phagocytosis of HL-60 cells by mouse macrophage cell line Ana-1, EC50 [5] [ng/mL]	IC50 [6] [nM]
CD20mAb-SD1 (bispecific antibody, human IgG1, kappa, Four chains, two heavy and two light, joined by disulfide bonds; Expressed in CHO cells; also called recombinant bi-functional fusion protein; CD20Ab-SD1) heavy: not shown light: QIVLSQSPAILSASPGEKVTMTCRASSSVSYIHWFQQKPGSSPKPWIYATSNLASGVPVRFSGSGSGTSYSLTISRVEAEDAATYYCQQWTSNPPTFGGGTKHELKRTVAAPSVFIFPPSDEQLKSGTASVVCLLNNFYPREAKVQWKVDNALQSGNSQESVTEQDSKDSTYSLSSTLTLSKADYEKHKVYACEVTHQGLSSPVTKSFNRGEC	0.14	0.14	11	476	2.72	0.08	–	–
SD1-CD20mAb (bispecific antibody, human IgG1, kappa, Four chains, two heavy and two light, joined by disulfide bonds; Expressed in CHO cells; also called recombinant bi-functional fusion protein) heavy: not shown light: QIVLSQSPAILSASPGEKVTMTCRASSSVSYIHWFQQKPGSSPKPWIYATSNLASGVPVRFSGSGSGTSYSLTISRVEAEDAATYYCQQWTSNPPTFGGGTKHELKRTVAAPSVFIFPPSDEQLKSGTASVVCLLNNFYPREAKVQWKVDNALQSGNSQESVTEQDSKDSTYSLSSTLTLSKADYEKHKVYACEVTHQGLSSPVTKSFNRGEC	0.15	0.1	3.36	19.7	0.09	0.4	300	–
Rituximab (antibody, V domains shown, Comparator antibody; also called Rituxan) VH: QVQLQQPGAELVKPGASVKMSCKASGYTFTSYNMHWVKQTPGRGLEWIGAIYPGNGDTSYNQKFKGKATLTADKSSSTAYMQLSSLTSEDSAVYYCARSTYYGGDWYFNVWGAGTTVTVSA VL: QIVLSQSPAILSASPGEKVTMTCRASSSVSYIHWFQQKPGSSPKPWIYATSNLASGVPVRFSGSGSGTSYSLTISRVEAEDAATYYCQQWTSNPPTFGGGTKLEIK	3.82	1.13	–	–	–	0.06	–	7.19
